This is an account of results in patent publication US20070036793A1, “Methods for use of an lkb1/strad7mo25 complex” (priority 2003, published 2007).

As a reminder, the Km is the concentration of substrate that gives half-maximal velocity.

The target in data set [1] is T1, GST-LKB1-STRADα-MO25α complex (Mus musculus, UniProt Q9WTK7).
T1 construct: Constructs expressing the full length wild type and kinase dead mouse LKB1 have been described previously; made in house; host or cells: HEK-293 / HEK-293T cells, co-transfected
T1 sequence (Q9WTK7 1-433 limits assumed): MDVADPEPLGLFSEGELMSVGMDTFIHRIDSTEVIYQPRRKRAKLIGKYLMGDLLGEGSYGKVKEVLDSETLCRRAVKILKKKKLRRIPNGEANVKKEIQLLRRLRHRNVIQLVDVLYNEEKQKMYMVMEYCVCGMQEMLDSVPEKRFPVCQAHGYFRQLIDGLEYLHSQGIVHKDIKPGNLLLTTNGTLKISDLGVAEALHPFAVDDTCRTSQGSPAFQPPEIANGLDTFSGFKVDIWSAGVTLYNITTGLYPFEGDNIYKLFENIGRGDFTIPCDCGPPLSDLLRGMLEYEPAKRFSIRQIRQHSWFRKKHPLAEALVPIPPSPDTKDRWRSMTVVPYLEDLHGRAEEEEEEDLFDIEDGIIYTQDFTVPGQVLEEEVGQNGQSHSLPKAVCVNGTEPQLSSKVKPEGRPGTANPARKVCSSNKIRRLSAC
T1 sequence (Q7RTN6 1-431 partner): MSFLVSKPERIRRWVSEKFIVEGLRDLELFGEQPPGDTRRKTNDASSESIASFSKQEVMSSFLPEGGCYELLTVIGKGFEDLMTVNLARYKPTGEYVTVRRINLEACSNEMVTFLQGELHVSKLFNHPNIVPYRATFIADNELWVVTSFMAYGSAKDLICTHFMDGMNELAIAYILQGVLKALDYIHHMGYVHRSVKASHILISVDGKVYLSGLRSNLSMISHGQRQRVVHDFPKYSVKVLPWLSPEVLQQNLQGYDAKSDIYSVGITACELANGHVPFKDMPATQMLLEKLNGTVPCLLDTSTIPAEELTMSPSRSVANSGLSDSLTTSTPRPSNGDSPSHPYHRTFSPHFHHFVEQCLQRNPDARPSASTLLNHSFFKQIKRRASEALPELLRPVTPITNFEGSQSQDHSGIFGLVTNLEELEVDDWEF
T1 sequence (Q9Y376 1-341 partner): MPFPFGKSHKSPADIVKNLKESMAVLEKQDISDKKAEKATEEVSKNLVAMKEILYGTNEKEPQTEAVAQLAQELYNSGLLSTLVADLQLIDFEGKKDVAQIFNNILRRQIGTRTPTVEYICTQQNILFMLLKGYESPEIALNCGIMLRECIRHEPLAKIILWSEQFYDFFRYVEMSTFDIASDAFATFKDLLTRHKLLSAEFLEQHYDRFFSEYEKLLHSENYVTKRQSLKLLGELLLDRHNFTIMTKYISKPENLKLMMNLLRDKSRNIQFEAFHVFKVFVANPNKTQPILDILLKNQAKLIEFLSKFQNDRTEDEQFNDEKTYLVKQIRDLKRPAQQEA
Nature of the data set: LKB1 kinase assay with AMPK T-loop peptide substrate (Example 3). It is filed as biochemical. The settings on record: peptide 10-2000 μM, 0.1 mM ATP, 30 min at 30° C. As for the experimental part:
FIG. 20: Km and Vmax for a peptide substrate (termed AMPKtide). Assay conditions are described in Example 3.
An assay may be performed as follows. Other assays using such a substrate peptide may be used, for example in a high throughput format. The standard assay (50 μl) contained: 0.3 μg of purified GST-LKB1-STRADα-MO25α complex, 50 mM Tris/HCl pH 7.5, 0.1 mM EGTA, 0.1% (by vol) 2-mercaptoethanol, 10 mM magnesium acetate, 0.1 mM [γ^32P]ATP (˜200 cpm/pmol) and T-loop peptide ([…], 10-2000 μM). The assays were carried out for 30 min at 30° C., then terminated by pipetting the reaction mixture onto a 1 cm square of p81 paper, which was washed with 6 changes of 250 ml of 50 mM phosphoric acid (2 min each wash), the paper washed once in 200 ml of acetone and dried. Radioactivity bound to the p81 paper was quantitated by Cherenkov counting. 1 unit of activity is the amount of enzyme that catalyses the phosphorylation of 1 nmol of peptide per minute.

For the next data set, the target named is T2, AMPK (Homo sapiens, UniProt Q13131).
T2 construct: Endogenous AMPK was immunoprecipitated from the cell extracts and assayed; endogenous in cells; host or cells: HeLa cells (control, or stably expressing wild type or kinase-dead LKB1)
Put plainly: Activation and Thr-172 phosphorylation of endogenous AMPK in HeLa cells with or without stably expressed LKB1. It is filed as cell-based. Particulars: earlier unpublished results.

The next data set has as its target T3, Flag-tagged STRADα (human, UniProt Q7RTN6 1-431, limits assumed).
T3 construct: pCMV5 vector; also called Flag-STRADα; FLAG-STRADα
T3 sequence: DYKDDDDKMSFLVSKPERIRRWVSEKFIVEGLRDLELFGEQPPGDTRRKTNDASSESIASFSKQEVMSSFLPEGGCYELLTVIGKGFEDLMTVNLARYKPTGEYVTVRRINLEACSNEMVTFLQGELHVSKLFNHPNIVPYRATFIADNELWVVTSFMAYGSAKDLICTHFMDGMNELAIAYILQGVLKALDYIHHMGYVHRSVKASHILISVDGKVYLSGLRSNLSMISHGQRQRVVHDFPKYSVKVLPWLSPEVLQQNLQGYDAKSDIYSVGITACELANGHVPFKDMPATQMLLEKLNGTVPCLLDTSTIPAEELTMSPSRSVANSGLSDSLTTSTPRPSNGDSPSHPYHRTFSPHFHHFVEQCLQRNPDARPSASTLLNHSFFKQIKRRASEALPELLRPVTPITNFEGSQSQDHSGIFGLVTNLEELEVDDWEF
Put plainly: heterotrimeric complex purified through GST-LKB1 from co-transfected 293 cells, colloidal blue gel and blots. Here is the method:
(§1) FIG. 4. MO25α is associated with LKB1 through STRAD (A) 293 cells were transfected with plasmids encoding for the expression of the indicated GST fusion proteins together with Myc-MO25α. 36 h post transfection, the GST tagged proteins were affinity purified from the cell lysates using glutathione-Sepharose as described in Materials and Methods. […] 5 μg of total cell lysates prior to affinity purification were also subjected to immunoblotting with anti-Myc antibody to ensure that Myc-MO25α was expressed at similar levels in each co-transfection (lower panel). (B) N-terminal GST tagged LKB1 was expressed in 293 cells in the presence or absence of Flag-STRADα and purified as above. The purified proteins were subjected to SDS-polyacrylamide gel electrophoresis and visualised by Colloidal blue staining (upper panel). The faint protein band indicated, corresponding to an endogenous protein of 40-kDa (marked *), was identified by tryptic peptide mass-spectral fingerprint as endogenously expressed MO25α (with 38% sequence coverage). The purified proteins were also immunoblotted with the indicated antibodies (lower panels). (C) As above except that GST-LKB1 was expressed in 293 cells together with the indicated isoforms of Flag-STRAD and Myc-MO25 and the proteins visualised by colloidal blue staining were also immunoblotted with the indicated antibodies. For all panels, similar results were obtained in at least 3 separate experiments.
(§2) Expression of GST-fusion proteins in 293 cells and affinity purification. 10-cm diameter dishes of 293 cells were transiently transfected with 3 to 10 μg of the pEBG-2T constructs using a modified calcium phosphate method (Alessi et al., 1996). 36 h post-transfection, the cells were lysed and the clarified lysates were incubated for 1 h on a rotating platform with glutathione-Sepharose (25 μl/dish of lysate) previously equilibrated in lysis Buffer.

For the next data set, the target named is T4, Flag-tagged STRADβ (human, UniProt Q9C0K7 1-418).
T4 construct: pCMV5 vector; also called Flag-STRADβ; FLAG-STRADβ
T4 sequence: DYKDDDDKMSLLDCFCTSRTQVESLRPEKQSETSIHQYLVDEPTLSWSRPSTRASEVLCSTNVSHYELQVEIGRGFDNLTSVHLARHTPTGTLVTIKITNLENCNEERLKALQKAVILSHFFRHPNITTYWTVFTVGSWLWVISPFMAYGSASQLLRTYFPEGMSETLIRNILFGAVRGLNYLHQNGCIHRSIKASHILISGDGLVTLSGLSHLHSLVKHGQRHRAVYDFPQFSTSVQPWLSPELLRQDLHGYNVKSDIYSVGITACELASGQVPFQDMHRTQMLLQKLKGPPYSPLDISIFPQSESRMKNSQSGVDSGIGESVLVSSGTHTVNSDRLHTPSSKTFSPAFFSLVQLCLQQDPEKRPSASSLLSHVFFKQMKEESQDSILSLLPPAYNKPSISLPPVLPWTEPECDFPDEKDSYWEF
Described as above. As for the experimental part: as §1, §2

The target of data set [2] is T5, Flag-tagged STRADα, Q7RTN6.
T5 chain: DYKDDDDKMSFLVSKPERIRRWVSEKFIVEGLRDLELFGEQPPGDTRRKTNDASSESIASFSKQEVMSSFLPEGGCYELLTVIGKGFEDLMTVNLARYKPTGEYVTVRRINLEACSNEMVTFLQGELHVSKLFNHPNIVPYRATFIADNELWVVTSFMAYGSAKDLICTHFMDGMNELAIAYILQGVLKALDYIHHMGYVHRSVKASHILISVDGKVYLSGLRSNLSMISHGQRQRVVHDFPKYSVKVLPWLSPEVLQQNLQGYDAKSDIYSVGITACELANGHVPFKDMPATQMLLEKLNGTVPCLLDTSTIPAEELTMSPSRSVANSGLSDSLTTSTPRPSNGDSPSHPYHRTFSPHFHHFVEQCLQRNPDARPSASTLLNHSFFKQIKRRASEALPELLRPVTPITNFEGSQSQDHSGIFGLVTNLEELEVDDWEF

The target of data set [3] is T6, Flag-tagged STRADβ, Q9C0K7.
T6 chain: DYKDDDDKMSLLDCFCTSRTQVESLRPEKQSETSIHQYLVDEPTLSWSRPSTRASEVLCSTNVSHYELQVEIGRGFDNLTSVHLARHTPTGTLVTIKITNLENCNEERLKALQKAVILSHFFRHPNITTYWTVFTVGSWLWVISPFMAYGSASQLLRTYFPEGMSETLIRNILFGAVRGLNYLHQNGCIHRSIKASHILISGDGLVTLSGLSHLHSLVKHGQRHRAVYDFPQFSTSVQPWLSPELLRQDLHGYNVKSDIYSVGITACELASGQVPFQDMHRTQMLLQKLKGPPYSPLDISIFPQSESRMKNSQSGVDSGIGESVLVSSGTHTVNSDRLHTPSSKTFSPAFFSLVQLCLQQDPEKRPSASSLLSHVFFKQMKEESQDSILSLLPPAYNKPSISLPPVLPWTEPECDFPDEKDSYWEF

T2 sequence (Q13131 whole entry): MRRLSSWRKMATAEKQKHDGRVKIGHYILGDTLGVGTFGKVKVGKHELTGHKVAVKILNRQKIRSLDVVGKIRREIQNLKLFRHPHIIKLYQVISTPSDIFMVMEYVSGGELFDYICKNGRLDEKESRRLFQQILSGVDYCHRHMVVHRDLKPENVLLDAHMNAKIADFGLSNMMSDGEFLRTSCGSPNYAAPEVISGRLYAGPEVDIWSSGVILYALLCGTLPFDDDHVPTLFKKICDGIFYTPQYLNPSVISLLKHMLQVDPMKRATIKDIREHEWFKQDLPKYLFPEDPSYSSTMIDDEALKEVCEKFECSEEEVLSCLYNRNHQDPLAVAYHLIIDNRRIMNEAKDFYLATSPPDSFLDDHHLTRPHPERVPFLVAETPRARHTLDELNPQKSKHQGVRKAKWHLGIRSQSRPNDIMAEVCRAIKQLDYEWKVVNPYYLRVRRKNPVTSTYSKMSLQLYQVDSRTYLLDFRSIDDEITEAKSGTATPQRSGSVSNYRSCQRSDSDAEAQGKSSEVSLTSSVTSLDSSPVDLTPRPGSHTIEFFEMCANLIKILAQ
T2 sequence (Q9Y478 2-270 partner limits assumed): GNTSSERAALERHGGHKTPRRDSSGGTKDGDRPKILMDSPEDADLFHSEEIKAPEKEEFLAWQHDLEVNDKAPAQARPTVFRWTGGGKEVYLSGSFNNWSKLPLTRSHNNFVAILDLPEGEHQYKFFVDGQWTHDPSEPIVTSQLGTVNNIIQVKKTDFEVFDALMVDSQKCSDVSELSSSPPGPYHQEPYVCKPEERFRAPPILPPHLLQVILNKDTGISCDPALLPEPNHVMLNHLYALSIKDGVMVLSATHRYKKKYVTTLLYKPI
T2 sequence (P54619 whole entry partner): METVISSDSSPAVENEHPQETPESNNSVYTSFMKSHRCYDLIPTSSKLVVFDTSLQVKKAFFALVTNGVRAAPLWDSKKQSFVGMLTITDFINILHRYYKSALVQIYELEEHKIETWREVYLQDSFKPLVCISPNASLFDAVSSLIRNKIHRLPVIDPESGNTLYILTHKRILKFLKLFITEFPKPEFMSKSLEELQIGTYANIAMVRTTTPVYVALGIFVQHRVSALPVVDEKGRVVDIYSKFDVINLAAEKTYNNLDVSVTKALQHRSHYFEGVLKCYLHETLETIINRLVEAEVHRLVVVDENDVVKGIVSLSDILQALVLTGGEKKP

Turning to “LSNMMSDGEFLRTSCGSPNRRR [AMPKtide, human AMPKα1 residues 163-181 with 3 additional Arg residues added to the C-terminal]”, in data set [1], the Km was 1800 ± 480 µM and the Vmax is given as 23.4±3.5.
Take `CN(C)C(=N)N=C(N)N` [metformin]: the “activation of AMPK” value on AMPK is “not activated”.

B1: N-terminal Myc-tagged MO25β (other)
chain: MEQKLISEEDLPLFSKSHKNPAEIVKILKDNLAILEKQDKKTDKASEEVSKSLQAMKEILCGTNEKEPPTEAVAQLAQELYSSGLLVTLIADLQLIDFEGKKDVTQIFNNILRRQIGTRSPTVEYISAHPHILFMLLKGYEAPQIALRCGIMLRECIRHEPLAKIILFSNQFRDFFKYVELSTFDIASDAFATFKDLLTRHKVLVADFLEQNYDTIFEDYEKLLQSENYVTKRQSLKLLGELILDRHNFAIMTKYISKPENLKLMMNLLRDKSPNIQFEAFHVFKVFVASPHKTQPIVEILLKNQPKLIEFLSSFQKERTDDEQFADEKNYLIKQIRDLKKTAP
notes: also called Myc-MO25β; myc-MO25β
In the case of B1, the binding result in the data set with Flag-tagged STRADα and with Flag-tagged STRADβ was “binds” in each case.

B2: N-terminal GST tagged wild type LKB1 (protein)
chain: MDVADPEPLGLFSEGELMSVGMDTFIHRIDSTEVIYQPRRKRAKLIGKYLMGDLLGEGSYGKVKEVLDSETLCRRAVKILKKKKLRRIPNGEANVKKEIQLLRRLRHRNVIQLVDVLYNEEKQKMYMVMEYCVCGMQEMLDSVPEKRFPVCQAHGYFRQLIDGLEYLHSQGIVHKDIKPGNLLLTTNGTLKISDLGVAEALHPFAVDDTCRTSQGSPAFQPPEIANGLDTFSGFKVDIWSAGVTLYNITTGLYPFEGDNIYKLFENIGRGDFTIPCDCGPPLSDLLRGMLEYEPAKRFSIRQIRQHSWFRKKHPLAEALVPIPPSPDTKDRWRSMTVVPYLEDLHGRAEEEEEEDLFDIEDGIIYTQDFTVPGQVLEEEVGQNGQSHSLPKAVCVNGTEPQLSSKVKPEGRPGTANPARKVCSSNKIRRLSACKQQ
For B2, in data set [2], the “LKB1 activity (autophosphorylation and phosphorylation of MBP)” value is “co-expression with STRADα induced an 4-fold increase in LKB1 activity”; the Relative activation (MBP): 32P phosphorylation of MBP by affinity purified GST-LKB1-WT co-expressed with STRADα (lane 2), GST-LKB1 alone (lane 1) = 1 was found to be 3.9. The “LKB1 activity (autophosphorylation and phosphorylation of MBP)” value in data set [3] was “LKB1 was only activated by STRADβ in the presence of MO25 isoforms”.
